From article PMC5803273, “Design of ultra-swollen lipidic mesophases for the crystallization of membrane proteins with large extracellular domains” (Nature Communications, 2018)

Target: the molecule itself
Assay: crystal structure; in meso crystals from 10 wt% DSPG/MP swollen mesophase, 20 °C, 0.2 M (NH4)SO4, 0.02 M NaCl, 0.02 M Na acetate pH 4, 33% v/v PEG200; molecular replacement with 4HFI and 4NPQ; 6 Å; closed state

B1: Gloeobacter violaceus ligand-gated ion channel (GLIC) (natural protein)
chain: VSPPPPIADEPLTVNTGIYLIECYSLDDKAETFKVNAFLSLSWKDRRLAFDPVRSGVRVKTYEPEAIWIPEIRFVNVENARDADVVDISVSPDGTVQYLERFSARVLSPLDFRRYPFDSQTLHIYLIVRSVDTRNIVLAVDLEKVGKNDDVFLTGWDIESFTAVVKPANFALEDRLESKLDYQLRISRQYFSYIPNIILPMLFILFISWTAFWSTSYEANVTLVVSTLIAHIAFNILVETNLPKTPYMTYTGAIIFMIYLFYFVAVIEVTVQHYLKVESQPARAASITRASRIAFPVVFLLANIILAFLFF
notes: GLIC, Gloeobacter violaceus ligand-gated ion channel; expressed from pET20-MBP-thrombin-GLIC (N-terminal signal peptide, MBP, thrombin site, GLIC); MBP removed by thrombin; the pentamer is printed as 174 kDa, 1585 amino acids (317 per chain); also called Gloeobacter ligand-gated ion channel; GLIC pentamer; not shown: MBP, N-terminal, cleaved
- stoichiometry N: 5
